Holding throughout (assay): cell-based or functional assay
Test [1] has as its target T1, glucagon receptor (UniProt P47871 26-477, limits assumed).
For test [2], the target named is T2, GLP-1 receptor (UniProt P43220 24-463, limits assumed).
The target in test [3] is T2, GLP-1 receptor. This is another data set of the same source.
Test [4] addresses T1, glucagon receptor. This is another data set of the same source.
Test [5] concerns the target T1, glucagon receptor. This is another data set of the same source.
For test [6], the target named is T2, GLP-1 receptor. The source holds these as a separate data set.
In test [7] the target is T1, glucagon receptor. The source holds these as a separate data set.
Test [8] has as its target T2, GLP-1 receptor. This is another data set of the same source.
In another test the target is T3, GIP receptor (UniProt P48546 22-466).
T3 sequence (looked up): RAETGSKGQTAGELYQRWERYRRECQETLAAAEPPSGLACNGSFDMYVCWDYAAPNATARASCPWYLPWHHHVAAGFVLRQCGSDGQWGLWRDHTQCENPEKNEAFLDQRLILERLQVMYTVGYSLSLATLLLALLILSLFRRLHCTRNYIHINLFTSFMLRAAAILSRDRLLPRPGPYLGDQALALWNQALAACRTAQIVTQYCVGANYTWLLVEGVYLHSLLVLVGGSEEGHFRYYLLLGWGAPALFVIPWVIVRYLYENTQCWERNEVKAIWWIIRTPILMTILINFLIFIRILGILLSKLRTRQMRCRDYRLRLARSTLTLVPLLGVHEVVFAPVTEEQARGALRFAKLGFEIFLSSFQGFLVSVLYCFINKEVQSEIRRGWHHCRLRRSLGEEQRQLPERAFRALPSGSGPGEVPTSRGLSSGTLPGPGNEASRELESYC

Where two headings read alike, the source gives them in different places. Starred links: 1 amine or outer side, 2 acyl side, 3 side chain; linkers in the order of their positions; H or OH if unused. Positions of bridges follow the written chain, without caps; N, C: chain ends. Non-standard residues stand in square brackets, D forms with d. Groups on a side chain read outwards from the residue. No end group written: not given here. *: point of attachment. γGlu = O=C(O)[C@H](CCC(=O)[*:2])N[*:1]; PEG40kDa = 40 kDa polyethylene glycol; Stearoyl = CCCCCCCCCCCCCCCCCC(=O)*; Palmitoyl = CCCCCCCCCCCCCCCC(=O)*; Dab = NCC[C@H](N)C(=O)O; Aib = CC(C)(N)C(=O)O

T1 sequence (P47871 26-477 limits assumed): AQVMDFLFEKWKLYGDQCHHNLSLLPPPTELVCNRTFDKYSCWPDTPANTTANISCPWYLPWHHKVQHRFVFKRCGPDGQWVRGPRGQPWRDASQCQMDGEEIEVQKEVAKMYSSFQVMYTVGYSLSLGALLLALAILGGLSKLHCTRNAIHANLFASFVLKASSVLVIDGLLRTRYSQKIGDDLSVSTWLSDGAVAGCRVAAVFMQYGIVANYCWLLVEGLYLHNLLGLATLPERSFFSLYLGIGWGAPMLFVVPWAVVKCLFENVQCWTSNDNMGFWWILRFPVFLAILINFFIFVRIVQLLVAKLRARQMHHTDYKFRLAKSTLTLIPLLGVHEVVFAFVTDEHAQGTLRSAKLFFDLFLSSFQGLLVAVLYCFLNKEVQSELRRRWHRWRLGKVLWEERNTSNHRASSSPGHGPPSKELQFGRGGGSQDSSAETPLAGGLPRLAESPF

B1: MDGG30 PSSGAPPPS (SEQ ID NO: 525) (peptide)
peptide: HSQGTFTSDYSKYLDSRRAQDFVQWLMDGGPSSGAPPPS-NH2
One may read the EC50 as the midpoint of the concentration-response curve. A high value points to a less potent agent. On to B1, for which, in the test with glucagon receptor [1], the EC50 amounted to 0.12 nM and the “Relative Potency (%)” value was found to be 72%. Moreover, in the test with GLP-1 receptor [2], a half-maximal effect (EC50) was put at 0.13 nM and the “Relative Potency (%)” value worked out at 19%.

B2: Peptide Chimera 2-AIB2-K30-acylated (peptide)
peptide: HXQGTFTSDYSKYLDEQAAKEFICWLMNTK
modifications: AIB at 2; Lys acylated with C18 (text says position 10, the name and the sequence say K30); 40 kDa PEG on Cys 24; C-terminal amide
With B2, in the test with GLP-1 receptor [3], the concentration giving a half-maximal response (EC50) came to 0.007 nM.

B3: HSDab(Ac)…ibRRATDFVTWLLDE (SEQ ID NO: 606) (peptide)
peptide: HS[Dab](Ac)GTFTSDYSKYLD[Aib]RRATDFVTWLLDE
On to B3, for which, in the test with glucagon receptor [4], the “% activity” value is 46% and the EC50 is 0.057 nM.

B4: VKGG30 PSSGAPPPS (SEQ ID NO: 524) (peptide)
peptide: HSQGTFTSDYSKYLDSRRAQDFVQWLVKGGPSSGAPPPS-NH2
For the molecule B4, in the test with glucagon receptor [1], the midpoint of the response, the EC50, lay at 1.16 nM and the “Relative Potency (%)” value was found to be 7%. Also, in the test with GLP-1 receptor [2], the concentration for a half-maximal effect (EC50) turned out to be 0.21 nM and the “Relative Potency (%)” value was 12%.

B5: Chi-2, d-Ser2, Lys10 γE-γE-C16 (SEQ ID NO: 644) (peptide)
peptide: H[dS]QGTFTSDK([γGlu-γGlu-Palmitoyl])SKYLDEQAAKEFIAWLMNT
For B5, the figures for the EC50 with glucagon receptor [5] and with GLP-1 receptor [6] were 0.008 nM and 0.003 nM, respectively.

B6: HSDab(Ac)…ibRRASDFVSWLLDE (SEQ ID NO: 605) (peptide)
peptide: HS[Dab](Ac)GTFTSDYSKYLD[Aib]RRASDFVSWLLDE
On to B6, for which, in the test with glucagon receptor [4], the “% activity” value is 54% and a half-maximal response (EC50) required 0.048 nM.

B7: DMIA1, E16/K20 lactam, Lys29 γE-γE-C16 (SEQ ID NO: 654) (peptide)
peptide: XSQGTFTSDYSKYLDERRAKDFVQWLMNK
modifications: DMIA at 1; E16/K20 lactam; Lys 29 with C16 acyl via γ-Glu-γ-Glu
The molecule B7 showed a 50% effective concentration (EC50) with glucagon receptor [5] of 0.025 nM.

B8: Peptide Y (peptide)
peptide: H[Aib]QGTFTSDYSKYLDEQAAKEFICWLMNT
modifications: lactam 16-20
As for B8, the “% activity of native glucagon” value with glucagon receptor [7] was 99.5%.

B9: Chi-2, AIB2, I7, Lys10 γE-γE-C16 (SEQ ID NO: 650) (peptide)
peptide: H[Aib]QGTFISDK([γGlu-γGlu-Palmitoyl])SKYLDEQAAKEFIAWLMNT-NH2
modifications: N-terminus assumed
SMILES: CCCCCCCCCCCCCCCC(=O)N[C@@H](CCC(=O)N[C@@H](CCC(=O)NCCCC[C@H](NC(=O)[C@H](CC(=O)O)NC(=O)[C@H](CO)NC(=O)[C@@H](NC(=O)[C@H](Cc1ccccc1)NC(=O)[C@@H](NC(=O)CNC(=O)[C@H](CCC(N)=O)NC(=O)C(C)(C)NC(=O)[C@@H](N)Cc1c[nH]cn1)[C@@H](C)O)[C@@H](C)CC)C(=O)N[C@@H](CO)C(=O)N[C@@H](CCCCN)C(=O)N[C@@H](Cc1ccc(O)cc1)C(=O)N[C@@H](CC(C)C)C(=O)N[C@@H](CC(=O)O)C(=O)N[C@@H](CCC(=O)O)C(=O)N[C@@H](CCC(N)=O)C(=O)N[C@@H](C)C(=O)N[C@@H](C)C(=O)N[C@@H](CCCCN)C(=O)N[C@@H](CCC(=O)O)C(=O)N[C@@H](Cc1ccccc1)C(=O)N[C@H](C(=O)N[C@@H](C)C(=O)N[C@@H](Cc1c[nH]c2ccccc12)C(=O)N[C@@H](CC(C)C)C(=O)N[C@@H](CCSC)C(=O)N[C@@H](CC(N)=O)C(=O)N[C@H](C(N)=O)[C@@H](C)O)[C@@H](C)CC)C(=O)O)C(=O)O
As for B9, the figures for the EC50 with glucagon receptor [5] and with GLP-1 receptor [6] were 0.007 nM and 0.01 nM, respectively.

B10: Peptide Chimera 2-AIB2-K10-acylated (peptide)
peptide: H[Aib]QGTFTSDK(Stearoyl)SKYLDEQAAKEFIC(PEG40kDa)WLMNT-NH2
For B10, in the test with GLP-1 receptor [3], the half-maximal effective concentration (EC50) turned out to be 0.465 nM.

B11: Chi-2, AIB2, E3, Lys10 C16 no spacer (SEQ ID NO: 647) (peptide)
peptide: H[Aib]EGTFTSDK(Palmitoyl)SKYLDEQAAKEFIAWLMNT-NH2
modifications: N-terminus assumed
SMILES: CCCCCCCCCCCCCCCC(=O)NCCCC[C@H](NC(=O)[C@H](CC(=O)O)NC(=O)[C@H](CO)NC(=O)[C@@H](NC(=O)[C@H](Cc1ccccc1)NC(=O)[C@@H](NC(=O)CNC(=O)[C@H](CCC(=O)O)NC(=O)C(C)(C)NC(=O)[C@@H](N)Cc1c[nH]cn1)[C@@H](C)O)[C@@H](C)O)C(=O)N[C@@H](CO)C(=O)N[C@@H](CCCCN)C(=O)N[C@@H](Cc1ccc(O)cc1)C(=O)N[C@@H](CC(C)C)C(=O)N[C@@H](CC(=O)O)C(=O)N[C@@H](CCC(=O)O)C(=O)N[C@@H](CCC(N)=O)C(=O)N[C@@H](C)C(=O)N[C@@H](C)C(=O)N[C@@H](CCCCN)C(=O)N[C@@H](CCC(=O)O)C(=O)N[C@@H](Cc1ccccc1)C(=O)N[C@H](C(=O)N[C@@H](C)C(=O)N[C@@H](Cc1c[nH]c2ccccc12)C(=O)N[C@@H](CC(C)C)C(=O)N[C@@H](CCSC)C(=O)N[C@@H](CC(N)=O)C(=O)N[C@H](C(N)=O)[C@@H](C)O)[C@@H](C)CC
Regarding B11, the figures for the EC50 with glucagon receptor [5] and with GLP-1 receptor [6] were 46.1 nM and 0.005 nM, respectively.

B12: mt-350 (peptide)
peptide: H[Aib]QGTFTSDYSKYLDEQAAKEFIC(PEG 40 kDa)WLMNGGPSSGAPPPSK-NH2
B12: the entries for the “% Relative activity” value with GLP-1 receptor [8] and with GIP receptor were 58.9% and 0%, respectively. The results for the 50% effective concentration (EC50) in the test with GLP-1 receptor [8] and with GIP receptor were 0.0107 nM and 77.7 nM, respectively.

B13: MKGG30 PSSGAPPPS (SEQ ID NO: 523) (peptide)
peptide: HSQGTFTSDYSKYLDSRRAQDFVQWLMKGGPSSGAPPPS-NH2
For B13, in the test with glucagon receptor [1], the midpoint of the response, the EC50, lay at 0.61 nM and the “Relative Potency (%)” value amounted to 14%. Moreover, in the test with GLP-1 receptor [2], the half-maximal effective concentration (EC50) is 0.8 nM and the “Relative Potency (%)” value was 3%.

B14: Chi-2, d-Ser2, Lys10 γE-C16 (SEQ ID NO: 643) (peptide)
peptide: H[dS]QGTFTSDK([γGlu-Palmitoyl])SKYLDEQAAKEFIAWLMNT
In the case of B14, the EC50 in the test with glucagon receptor [5] was 0.011 nM; with GLP-1 receptor [6] it was 0.0014 nM.

B15: Peptide X-PEG (peptide)
peptide: H[Aib]QGTFTSDYSKYLDEQAAKEFIC([maleimide-PEG 40 kDa])WLMNT
As to B15, in the test with glucagon receptor [7], the “% activity of native glucagon” value was 1.9% and the “EC50 (cAMP, CRE-luciferase)” value is 2.9 nM.

B16: Chi-2, AIB2, E3, Lys10 γE-γE-C16 (SEQ ID NO: 648) (peptide)
peptide: H[Aib]EGTFTSDK([γGlu-γGlu-Palmitoyl])SKYLDEQAAKEFIAWLMNT
B16: the concentration for a half-maximal effect (EC50) with glucagon receptor [5] amounted to 2.92 nM; with GLP-1 receptor [6] it was 0.004 nM.

B17: HSDab(Ac)…ibRRAADFVAWLLDTGPSSGAPPPS amide (SEQ ID NO: 604) (peptide)
peptide: HS[Dab](Ac)GTFTSDYSKYLD[Aib]RRAADFVAWLLDTGPSSGAPPPS-NH2
modifications: N-terminus assumed
SMILES: CC(=O)NCC[C@H](NC(=O)[C@H](CO)NC(=O)[C@@H](N)Cc1c[nH]cn1)C(=O)NCC(=O)N[C@H](C(=O)N[C@@H](Cc1ccccc1)C(=O)N[C@H](C(=O)N[C@@H](CO)C(=O)N[C@@H](CC(=O)O)C(=O)N[C@@H](Cc1ccc(O)cc1)C(=O)N[C@@H](CO)C(=O)N[C@@H](CCCCN)C(=O)N[C@@H](Cc1ccc(O)cc1)C(=O)N[C@@H](CC(C)C)C(=O)N[C@@H](CC(=O)O)C(=O)NC(C)(C)C(=O)N[C@@H](CCCNC(=N)N)C(=O)N[C@@H](CCCNC(=N)N)C(=O)N[C@@H](C)C(=O)N[C@@H](C)C(=O)N[C@@H](CC(=O)O)C(=O)N[C@@H](Cc1ccccc1)C(=O)N[C@H](C(=O)N[C@@H](C)C(=O)N[C@@H](Cc1c[nH]c2ccccc12)C(=O)N[C@@H](CC(C)C)C(=O)N[C@@H](CC(C)C)C(=O)N[C@@H](CC(=O)O)C(=O)N[C@H](C(=O)NCC(=O)N1CCC[C@H]1C(=O)N[C@@H](CO)C(=O)N[C@@H](CO)C(=O)NCC(=O)N[C@@H](C)C(=O)N1CCC[C@H]1C(=O)N1CCC[C@H]1C(=O)N1CCC[C@H]1C(=O)N[C@@H](CO)C(N)=O)[C@@H](C)O)C(C)C)[C@@H](C)O)[C@@H](C)O
On to B17, for which, in the test with glucagon receptor [4], the “% activity” value turned out to be 113% and the EC50 amounted to 0.023 nM.

B18: Chi-2, AIB2, Lys10 γE-C16 (SEQ ID NO: 645) (peptide)
peptide: H[Aib]QGTFTSDK([γGlu-Palmitoyl])SKYLDEQAAKEFIAWLMNT-NH2
modifications: N-terminus assumed
SMILES: CCCCCCCCCCCCCCCC(=O)N[C@@H](CCC(=O)NCCCC[C@H](NC(=O)[C@H](CC(=O)O)NC(=O)[C@H](CO)NC(=O)[C@@H](NC(=O)[C@H](Cc1ccccc1)NC(=O)[C@@H](NC(=O)CNC(=O)[C@H](CCC(N)=O)NC(=O)C(C)(C)NC(=O)[C@@H](N)Cc1c[nH]cn1)[C@@H](C)O)[C@@H](C)O)C(=O)N[C@@H](CO)C(=O)N[C@@H](CCCCN)C(=O)N[C@@H](Cc1ccc(O)cc1)C(=O)N[C@@H](CC(C)C)C(=O)N[C@@H](CC(=O)O)C(=O)N[C@@H](CCC(=O)O)C(=O)N[C@@H](CCC(N)=O)C(=O)N[C@@H](C)C(=O)N[C@@H](C)C(=O)N[C@@H](CCCCN)C(=O)N[C@@H](CCC(=O)O)C(=O)N[C@@H](Cc1ccccc1)C(=O)N[C@H](C(=O)N[C@@H](C)C(=O)N[C@@H](Cc1c[nH]c2ccccc12)C(=O)N[C@@H](CC(C)C)C(=O)N[C@@H](CCSC)C(=O)N[C@@H](CC(N)=O)C(=O)N[C@H](C(N)=O)[C@@H](C)O)[C@@H](C)CC)C(=O)O
For B18, the EC50 with glucagon receptor [5] turned out to be 0.025 nM; in the test with GLP-1 receptor [6], 0.0014 nM.

The values are drawn from US20120172295A1 (INDIANA UNIVERSITY RESEARCH AND TECHNOLOGY, published 2012).
